This note sets out measurements from a protein production outcome set (Wang et al. 2014).

The nature of the series: label from the status in PepcDB records.
For “MPAGSDWRTQPPSDYAQWNPAPRMPNQPKPLTTAHHQFAAIVQNSFDAIVSKDVEGNVQSWNPAAEQIFGWTADEMIGNSIRVLIPPDRQHEEDDILQRIRTGEMVPKFETERLHKSGRRIHVAVTVSPLRDPDGRIVGASKIAHDITETVEIRRRLVASEHQFRSLANSIPQLAWIAESDGTVFWYNDRWFDYTGTTLEQLRGSGWTALHHPDHLERVRSKLQHSWDTGEAWEDTFPLRGKDGEYRWFLSRAMPLRDDSGEVWRWFGTNTDITVQRQHEQQIQMLMGEINHRAKNMLAVVQAMVMRTADRSFAESLGARLQALSRNQDLLIKRNWSGTPIGELIESQLAAVNDLIGTRVLIEGERELLLSPVASETIGLAIHELTTNATKYGALSNADGTVRIACEIRHTVDGPKLDLIWHEQGGPPVGEPNRAGFGTVMIDRNPRSALGADVEISYPESGLRWCLNAPLDRLVATP”, the protein production entry is listed as “not failed”.
With “MISPELVKEALKKKKVRSEEAFGLEYLRFNDDYKDIPRGTAIFKDFIIWGYPHIGRIFLLETGLREQFEAPFWVEEKVDGYNTRIFKYGDNYYALSRGGFICPFTTDRLPDLIDLRILDENPDLVICAEVAGPENPYIEESPPYVKEDVQLFVFDFMKKNEQGFLSQEEKMELIEKYNLPHVEILGRFTASEEGIKKIKEILKRFNEEGREGVVFKEDSERNKRAKYITSYANLMDIKTNAKNMLQLPPEYYTNRILRLVLFMYEEGLKTTEHLYEELGRAFIDGLFQAIEQFEKEHKVYKTFTCKFRKKENAIALLELLSKTSKHIQVKERRLEKEGDYWRLEFDKVFLNMTGLLGHLLSGGIVYD”, the protein production entry was “not failed”.
“MESIQSSLKHMTGNRSFEKQFTQLKEAVFRSPHVQLFLEEHPSLSPITLEQGLSKLYEYQKEQSHCAHCPGLQKCPNLMKGYQPTLYVERDSLELSYSPCPLKEEEEREKKKRSLIRSLYIPKEILEAKFDDVESEPGRSIASHRALEFALSAKPGEDGMGLYLYGKFGVGKTFLMGAIANELKDRGIDSTIVYVPDFFRELKQSIGDGTFQQKLDFVKNAQVLIFDDIGAETMTSWVRDDVLGVILQYRIMEKLPTLFTSNYDYDELEEHLAYNDKSGTELLKAKRVMERIRHYTVSVMVQGQNRREHQSLEHHHHHH”: the protein production result is recorded as “not failed”.
The entry for “MEGPLNLAHQQSRRADRLLAAGKYEEAISCHRKATTYLSEAMKLTESEQAHLSLELQRDSHMKQLLLIQERWKRAKREERLKAH” is “not failed”; for “MQGENAPQRSAEVTILDKQAIDIPHPLPGQDDQEFWIYVQKGRLGPKREFQVGIHYYHALNPGDKGVLTYQGQRFLHFALKRLEHHHHHH” it is “not failed”; for “MGKRMLSMFHPFEIALCGLSGSGKTTLLEKLIRRFSTDGFEVAAFKHGCHRFDIDREGKDSDRFRRAGAVPVLIVDREKEALISSGTGRLDIAGLTLNADLLFIEGFKELPVPKVLLIDERREILPSLESGAIPEVLALAHDGDAEDMERFGLPLFHRDDVARISDFSAEFFRRAAQSVPLNGLVLAGGRSLRMGRDKAQLRYHEASQLDRTAALLGGVCNEVFISCRSDQLDQYSDARLPGIADSYLDLGPLGGLLSAQRHAPGAAWLVAACDLPFIDEAVIAALRAGRHPFRFGTAFAGSDGRPEPLLAIYEPKSRRRLLERHASGNDSLRAFLMNSRVQFIEPNDASKLRNVNDPAAMDDALRAISKGGQLEHHHHHH” it is “failed”.
The value for “QKVQDAAMQEDPKALDEVVIVARQNINELDIRAKSGVVQRVDVERLNSKPMIDMSLALQGAVPGLIITNTGDLGSKPEIRIRGNSSFRKGDMANEPLYVMDGKVISSDAFMTLNPADIQEIKVLKDAVACALYGIKAANGVIEITSQRGNPDG” was “failed”; that for “MQDSRPHPHDWNVSTDEAKRIQRRLASEVTERALPDGGETVAGIDVSVRDDTAQAAVSVLRLPELDVVDEATHRCEVPFPYVPGLLSFREMPAVLPALERLHSTPDVFVTDSHGAAHPRRFGLACHLGVLLDAPAIGVAKSILVGAPQGELGPEKGSRVPLVDDGETVGTVLRTRTDVNPVYVSVGHRCTLDGAADLMLDCSPRYKIPEPTRQAHKLSRAEGLEHHHHHH” was “not failed”; that for “MKDFWTWERLSFHMVLAYNDDRSFLINTGMPLDLTLRNQEMKKFAGDRAIFRSEDSIEMLRKAGFTPDDIDYVALTPVQDYTIGRLNEFRKSKIFIFRDGWIKDIAAPAYAYFHNRDLFIPKNIFDFVYGEGWKNIIFYDGETELVPGIRAIPVGCHHRSSVAFAINAKDGTYVFTDASFKAENVRNRIPIGIAENIYECLSAYEKIEKIGKLLPAYDPAIDDLYIKLEHHHHHH” was “not failed”.
Regarding “MSLISFAPHSGVWLLTTPHTSYALRIDASGAPCHLAWGPRLTLAAAEELAVPEPPAASSFEGRPSVGEELPVDGGVRYGPPSLQVRFADGSRAFEWQPTGHRVHESADGAHELVLFFRDRRYPLQVALHYRVRADTDVIERWTVVRNGGDEPVTLLRADSAAWTLPPLADYRLSHVTGQWSAESRLRRDRLPYGETVLTSRRGITSHHTNPWLMVDSGEATEDHGRVWSAALAWSGSWRITTQRTPDGRTGFTGGVGHDGTGVPLTPGEEFTAPAFAGLFTADGFGAASRAWHAYTLAHVLPHPDEPVPVLYNSWEATGFDVDEVGQKALAERAAALGVELYVVDDGWFGGRRSDRAGLGDWTPAPDRFPDGLGPLADRVRELGMRFGLWVEPEMVNPDSDLYRAHPDWVLHLPDRSRSELRNQLVLNFARRDVADWAYGWLTELVGAHRIDFLKWDMNRAFSEAGWPGQQDGADRLGTQYVRHLYGVIDRLRADHPGLRIESCSGGGGRIDLGILGRTDQTWASDNTDAADRLWIQHGFSQIYPARTMGCWVTDAPNQFTGRGLPLRFRFHAAMAGALGIGGDLARWSEEELREGAALVTEYKKVRHLVQHGRLDRLSPPSGQSPAVVQYTSADGSESLVLAWRGVPRPGDADLPVRLRALTPAARYRDSRTGTVHHASVLGDYGLRLDLPAGDWSSVAMHLVREPEAV”, the protein production entry is “failed”.
As for “MIEKIIDLSVKNKLLTTLVTLLIFLASLWAIKSVRLDALPDLSPAQVVVQITYPNQSPKIVQEQVTYPLVSTFMSIANIDTVRGISSYESGLIYIIFKDGVNLYWARDRVLEQLNRVSNLPKDAKVEIGSDSTSIGWAYQYALSSDSKNLSDLKVLQDFYYRYALLGVDGVSEVASVGGFVKDYEVTLQNDSLIRYNLSLEQVANAIKNSNNDTGGGVILENGFEKIIRSHGYIQSLKDLEEIVVKKEGAIPLKIKDIASVRLTPKPRRGAANLNGDKEVVGGIVMVRYHADTYKVLKAIKEKIATLQASNPDVKITSVYDRSELIEKGIDNLIHTLIEESVIVLVIIAIFLLHFRSALVVIITLPLSVCISFLLMRYFNIEASIMSLGGIAIAIGAMVDAAIVMVENAHKHLQHIDVKDNAQRVNGIIEGVKHVGGAIFFALMIIVVSFLPIFALTGQEEKLFAPLAYTKTFAMLVGALLSITMVPILMVWLIKGRILEESKNPINAFFMKIYGVSLNVVLKFRYAFLIASVLGLGGLYVAYKKLNWEFIPQINEGVVMYMPVTINGVSIDTALEYLKKSNSAIKRLDFVKQVFGKVGRANTSTDAAGLSMIETYIELKPQNEWKEKLSYKEVRDKLEKTLQLKGLTNSWTYPIRGRTDMLLTGIRTPLGIKLYGNDTDKLQELAILMEQQLKTLKESLSVFAERSNNGYYITLDLNDENLARYGINKKAVLDAIKFALGGATLTTMIKGVENYPISLRLEDTERNTIEKLKNLYIKTAYNYMPLRELARIYYDNSPAVLKSEKGLNVNFIYIVPQNGISSDAYRQLAQKALEKIQLPNGYYYEFSGESQYLEEAFKTLQYIVPVSVFIIFILIVFALKNLTNSLLCFFTLPFAFLGGLIFMNLMGFNMSVAALVGFLALLGVASETAIVMIIYLEDAFQKFIKTPLKEQNSTTLKEAIMHGAVLRVRPKLMTFFSILASLIPIMYSHGTGSEIMKSIAAPMLGGMISSVVLTLFIIPTAYFVIKNAGIKSNQT”, the protein production entry was “failed”.
For “MAKAFEEQRRSPDLEALPFEDRIGLLVDREAAERDTRRLTTRLKIAALRQTACVEDVDLRTPRGIDRAVFAKLVEGRWIDRHENLLVTGATGLGKSWLACALGHKACRDNRSVLYHRVPRLFEALALARGDGRYARLLKSLGRAQLLILDDWGLSVLTAAERRDLLEILEDRHGRASTIVTSQLPWTPGMEPLGTPRSPTPFSIASSTTPTASSSPEKACENAAPKPSPLTANQNTDSISHRPLEHHHHHH”, the protein production result was “failed”.
In the case of “MDALIMAGGKGTRLKENVEKPILNICEKPMIDYVIDSLLNSKIEKIYVAVSIHTPKTKEYLEKKYRLDRNYNPKIDIICTSGTNYVDDLNECMEFFKEPFLILSSDIPTIKPKVINSIIQDYLFVNNSCNRIESFCVVTKDDDYVGTPSINMGGYIPLGINILTPKHGEQTEILHVIKDIIVNVNTLSDKKLVETLINKVVELEHHHHHH”, the protein production entry is “not failed”.
In the case of “SRRRRSGTEPEKIEPGEGASRSRRDMLKDGGQQGLGTGARDPDKATRFRMEELRLTSTTFALTGDSAHNQAMVHWSGHNSSVILILTKLYDYNLGSITESSLWRSTDYGTTYEKLNDKVGLKTILSYLYVCPTNKRKIMLLTDPEIESSLLISSDEGATYQKYRLNFYIQSLLFHPKQEDWILAYSQDQKLYSSAEFGRRWQLIQESVVPNRFYWSVMGSSKEPDLVHLEARTVDGHSIYLTCRMQNCTEANRNKPFPGYIDPDSLIVQDDYVFVQLTSGGRPHYYVSYRRSPFAQMKLPKYALPKDMHVISTDENQVFAAVQEWNQNDTYNLYISDTRGVYFTLALENVQSSRGPEGNVMIDLYEVAGIKGMFLANKKIDNQVKTFITYNKGRDWRLLQAPDADLRGDPVHCLLPYCSLHLHLKVSENPYTSGIIASRDTAPSIIVASGNIGSELSDSDISMFVSSDAGNTWRQIFEEEHSILYLDQGGVLVAMKHTSLPIRHLWLSFDEGRSWSKYSFTSIPLFVDGVLGEPGEETLIMTVFGHFSHRSEWQLVKVDYKSIFDRRCAEEDYRPWQLHSQGEACIMGAKRIYKKRKSERKCMQGKYAGAMESEPCVCTEADFDCDYGYERHSNGQCLPAFWFNPSSLSKDCSLGQSYLNSTGYRKVVSNNCTDGVREQYTAKPQKCP”, the protein production result was “not failed”.
Take “MECKTMERITVNLGERSYPISIGAGLFANPALLSLSAKQKVVIVTNHTVAPLYAPAIISLLDHIGCQHALLELPDGEQYKTLETFNTVMSFLLEHNYSRDVVVIALGGGVIGDLVGFAAACYQRGVDFIQIPTTLLSQVDSSVGGKTAVNHPLGKNMIGAFYQPKAVVIDTDCLTTLPAREFAAGMAEVIKYGIIYDSAFFDWLEAQMEALYALDEQALTYAIARCCQIKAEVVAQDEKESGIRALLNLGHTFGHAIEAHMGYGNWLHGEAVSAGTVMAAKTAQLQGLIDASQFERILAILKKAHLPVRTPENMTFADFMQHMMRDKKVLAGELRLVLPTSIGTSAVVKGVPEAVIAQAIEYCRTV”: the protein production entry is on record as “not failed”.
As for “MNHDLLTNNPLLIVSAIFVFFILLEIACSAFGQPRGQRRDVLIEAVGSSLLLGVTFPLVMWASGALMQLSLPEAKGALAQIPWVLGLLLFLVFDDMTQYWWHRLTHRVPALYALHRAHHSAPYMSIRIVYRNNSFYYLLMPGIWFSGVLIYLGLAPVYYGYLILKMTVIFAAHSSVAWDDKLYRIGFLRPLMWLLERVFSTPSTHSAHHGLSAEDGVTHYKGNFGNLLFLWDVLFGTAKITRRRPVAYGIEHLAPVSWTQELFWPLVRSRKARASAVARVEGALPANPASQG”, the protein production result is reported as “failed”.
Take “MESLTQYIPDEFSMLRFGKKFAEILLKLHTEKAIMVYLNGDLGAGKTTLTRGMLQGIGHQGNVKSPTYTLVEEYNIAGKMIYHFDLYRLADPEELEFMGIRDYFNTDSICLIEWSEKGQGILPEADILVNIDYYDDARNIELIAQTNLGKNIISAFSN”: the protein production entry is listed as “not failed”.
